The target in this data set is MSH2 (MutSβ subunit);MSH3 (MutSβ subunit) (human;human, UniProt P43246;P20585 1-934;1-1137, |). The data set can be described thus: SPR; 10 mM Mg2+; FAN1 SPR: 20 mM Tris-HCl pH 7.6, 70 mM NaCl, 10 mM CaCl2, 1 mM EDTA, 0.01% P-20, 1 mM DTT, 0.05 mg/ml BSA, 5°C; MutSβ SPR: 10 mM Tris-HCl pH 7.6, 150 mM NaCl, 10 mM MgCl2, 1 mM EDTA, 1 mM DTT, 0.005% P-20 (samples held at 10°C). The conditions noted are these: protein: recombinant;recombinant, tags: ;, copies: 1;1, label: 5'-biotin on strand 1, 5'-digoxigenin on strand 2, blunt. For orientation: In SPR one partner is held on a chip, and binding of the other changes the refractive index at the surface.

As usually defined, the Kd is the free concentration of one partner at which half of the binding sites on the other are occupied at equilibrium, for simple one-to-one binding.

B1: (CAG)1 extrusion mr78 (dsDNA)
DNA 1: CGAATTTCTAGACTCGAGATCAGCTGCTAGGTCGAGTCTAGAG
DNA 2: CTCTAGACTCGACCTAGCAGATCTCGAGTCTAGAAATTCG
For the molecule B1, the Kd (central 3-nt extrusion in strand 1, 20 bp each side) was determined as 0.5 ± 0.1 nM.

B2: (CAG)3 extrusion mr78 (dsDNA)
DNA 1: CGAATTTCTAGACTCGAGATCAGCAGCAGCTGCTAGGTCGAGTCTAGAG
DNA 2: CTCTAGACTCGACCTAGCAGATCTCGAGTCTAGAAATTCG
In the case of B2, the Kd (central 9-nt extrusion in strand 1, 20 bp each side) is 1.2 ± 0.4 nM.

B3: (CAG)2 extrusion mr78 (dsDNA)
DNA 1: CGAATTTCTAGACTCGAGATCAGCAGCTGCTAGGTCGAGTCTAGAG
DNA 2: CTCTAGACTCGACCTAGCAGATCTCGAGTCTAGAAATTCG
B3: the Kd (central 6-nt extrusion in strand 1, 20 bp each side) is 0.5 ± 0.16 nM.

B4: (CAG)13 extrusion mr78 (dsDNA)
DNA 1: CGAATTTCTAGACTCGAGATCAGCAGCAGCAGCAGCAGCAGCAGCAGCAGCAGCAGCAGCTGCTAGGTCGAGTCTAGAG
DNA 2: CTCTAGACTCGACCTAGCAGATCTCGAGTCTAGAAATTCG
In the case of B4, the Kd (central 39-nt extrusion in strand 1, 20 bp each side) turned out to be 4.2 ± 1.5 nM.
